In patent US20170173114A1, “METHODS AND COMPOSITIONS FOR INDUCTION OF UCP1 EXPRESSION” (Joslin Diabetes Center, Inc., priority 2014, published 2017):

What was measured:
[1] = test system: 3T3-F442A white preadipocytes; assay: Seahorse Bioanalyzer cellular respiration in 3T3-F442A white preadipocytes; format: cell-based; conditions: constitutive overexpression of FGF6
Excerpt: (§1) The Seahorse XF24 (Seahorse Bioscience, http://www.seahorsebio.com/) was utilized for respirometry to measure oxygen consumption rates (OCR; indicating oxidative phosphorylation) and extracellular acidification rates (ECAR; indicating extracellular pH) in mature brown adipocytes. The cell plates and assay cartridges for the Seahorse XF24 have four ports allowing for drug delivery to individual wells during measurement of the metabolic parameters. For a typical bioenergetic profile, cells are first treated with oligomycin to block ATP synthase, FCCP as an uncoupler and Rotenone to block Complex 1 of the ETC (all from Sigma). Example 2 provides additional details regarding the general method. Data provided in the Figures (e.g., FIG. 27) based on the Seahorse Bioanalyzer includes a bottom horizontal line which represents the baseline of the mechanics of the machine and is not related to the experiment.
To assess FGF6's role in the regulation of mitochondrial activity, FGF6 was stably expressed in WT-1 brown preadipocytes and 3T3-F442A white preadipocytes. Stable cells were generated by viral infection followed by drug selection.
(§2) A profile of cellular respiration was developed by utilizing well-characterized mitochondrial toxins, as described in FIG. 5B. First, basal respiration was measured, followed by injection of oligomycin (an inhibitor of ATP synthase which allows measurement of ATP turnover). Then, the uncoupler FCCP (carbonilcyanide p-triflouromethoxyphenylhydrazone) was injected to measure respiratory capacity, followed by the complex 1 inhibitor rotenone (which prevents electron transfer activity and leaves only non-mitochondrial activity to be measured).
As mentioned above, 3T3-F442A white preadipocytes were also used to determine FGF6's role in mitochondrial activity regulation.

preadipocytes = assay: Transmission electron microscopy of mitochondria in preadipocytes; format: cell-based; conditions: preadipocytes overexpressing FGF6 vs control
Experimental: To determine if FGF6 treatment affects the overall health condition of mitochondria, mitochondrial attributes such as mitochondria biogenesis, mass, morphology and dynamics were measured. Mitochondrial mass was measured by a cell-permeable dye (MitoTracker Green FM) and by transmission electron microscopy (EM). MitoTracker Green FM accumulates in mitochondria in live cells irrespective of mitochondrial membrane potential. The intensity of fluorescence was visualized by microscopy and quantitated by flow cytometry. Mitochondrial morphology and ultra-structure (such as cristae and granules) was assessed by EM.

WT-1 brown preadipocytes = assay: Seahorse Bioanalyzer cellular respiration in WT-1 brown preadipocytes; format: cell-based, murine
Excerpt: as §1, §2
Similar results were observed when WT-1 brown preadipocytes were treated with 200 ng/mL of FGF6 for 24 hrs using the Seahorse Bioanalyzer.
The role of PGs in regulating mitochondrial function and cellular glucose uptake was also assessed. WT-1 brown preadipocytes were treated with PGE2, PGI2 and FGF6 in growth media (DMEM+10% FBS) for two days. Similar to treatment with FGF6, treatment with PGE2 and PGI2 enhanced oxygen consumption and glucose uptake, as described in FIGS. 27A and 27B, respectively.

RIP140 (NRIP1) = assay: RIP140 mRNA expression in brown and white preadipocytes; format: cell-based; conditions: 200 ng/mL, three or seven days
Experimental: Total RNA was isolated with QIAzol lysis reagent (Qiagen, Valencia, Calif.) and purified by RNeasy Mini columns (Qiagen) following the manufacture's instructions. cDNA was prepared from total RNA using the Advantage RT-PCR kit (BD Biosciences, Palo Alto, Calif.) according to manufacturer's instructions. Diluted cDNA was used in a PCR reaction with SYBR Green Master Mix (Applied Biosystems, Foster City, Calif.) and primers specifically designed for detection of the gene of interest. PCR reactions were run in duplicate for each sample and quantitated in the ABI Sequence Detection System (Applied Biosystems). Data were expressed as arbitrary units after normalization to levels of expression of internal controls for each sample. Sequences of primers for specific genes are each obtained from the published literature or designed using publically available gene sequence databases. Unless otherwise indicated, gene expression data described in the examples below was obtained using QPCR.
RIP140 directs DNA methylation and interacts with nuclear receptors to silence UCP1 expression and suppress mitochondrial biogenesis in white adipocytes (Kiskinis E. et al., EMBO J. 26:4831-4840, 2007; Powelka A. M. et al., J. Clin. Invest. 116:125-136, 2006; Wang H. et al., Mol. Cell. Biol. 28:2187-2200, 2008). […]

UCP1 and PTGS2 = UCP1 and PTGS2 mRNA in WT-1 cells differentiated with BMP7; format: cell-based, murine; conditions: 200 mg/mL FGF6 for 32 hours after 8 days BMP7; vs vehicle
Experimental: WT-1 preadipocyte cells were exposed to 3.3 nM BMP7 in growth media (DMEM-high glucose, 10% FBS, supplemented with 20 nM insulin and 1 nM triiodothyronine (T3)) for 8 days in order to induce differentiation of the adipocytes (Tseng Y. H. et al., (2008) Nature 454(7207):1000-1004). Following day 8 of treatment, the cells were exposed to […] of FGF6 protein, or vehicle control, in growth media for 32 hours. Cells were then collected, and UCP1 and PTGS2 mRNA expression levels were determined according to the quantitative RT-PCR assay described above.

B1: FGF6: fibroblast growth factor 6; recombinant human FGF from R&D Systems, or mouse FGF6 cDNA overexpressed by lentiviral vector (protein)
chain: KRQRRLYCNVGIGFHLQVLPDGRISGTHEENPYSLLEISTVERGVVSLFGVRSALFVAMNSKGRLYATPSFQEECKFRETLLPNNYNAYESDLYQGTYIALSKYGRVKRGSKVSPIMTVTHFLPRI
gain of ATP turnover [1]: 5 fold | gain of proton leak [1]: 5 fold | increase in cellular respiration [1]: 5-10 fold | increase of basal respiration [1]: ~7 fold | increase of maximal respiratory capacity [1]: ~6 fold | number of mitochondria by transmission electron microscopy (preadipocytes): fewer mitochondria | shape of mitochondria by transmission electron microscopy (preadipocytes): longer shape | cellular respiration (basal respiration, ATP turnover, proton leak, respiratory capacity) (WT-1 brown preadipocytes; FGF6 overexpressing WT-1 vs control cells): increase in all tested aspects of cellular respiration | uncoupled respiration (WT-1 brown preadipocytes; WT-1 treated with 200 ng/mL for 24 hrs): elevation in uncoupled respiration | cellular respiration (basal respiration, ATP turnover, proton leak, respiratory capacity) (WT-1 brown preadipocytes; WT-1 treated with 200 ng/mL for 24 hrs vs control cells): coordinated increase in all aspects of cellular respiration | reduction of RIP140 mRNA expression (RIP140 (NRIP1)): 50-80% | PTGS2 levels in cells differentiated using BMP7 (UCP1 and PTGS2): increased | UCP1 expression in cells differentiated using BMP7 (UCP1 and PTGS2): induced UCP1 expression
